The results in this text go back to US20150252427A1 (UNIVERSITY OF CONNECTICUT, published 2015).

The chains are these.
B1: Tnpo3 Mut peptide (peptide)
peptide: SYMLQALCI
notes: Mut of (sy/LD)MLQALCI; Meth A; also called mutant Tnpo3 peptide; sy-MLQALCI

Bounds are passed on as bounds.

In one assay the target is T1, H-2 K^d molecules purified by affinity chromatography (human, UniProt P61769 21-119; P01902 22-305).
T1 construct: MHC class I molecule, 1-10 nM in the assay, with added human beta-2 microglobulin; also called purified MHC molecules
Nature of the assay: radiolabeled peptide inhibition assay, purified H-2 K^d.
Source text: (§1) Binding assays. […] Under the conditions utilized, where [label]<[MHC] and IC₅₀≧[MHC], the measured IC50 values are reasonable approximations of the KD values.
For NYLLSLVAVVL [Serinc1 WT peptide], the IC50 (usually the concentration at which inhibition is half-maximal) amounted to 20.9 µM.

NYLLSLVAVML (CMS5) [Serinc1 Mut peptide]: inhibition was half-maximal at 2.68 µM (IC50).

On to AYCETCWEW [Apc WT peptide], for which 0.06 µM corresponded to half-maximal inhibition (IC50).

Consider AYCETCWEL (Meth A) [Apc Mut peptide], for which it took 0.023 µM to reach half-maximal inhibition (IC50).

For the molecule CYAKLKEQL (WT of CYAK(v/L)KEQL) [Ssx2ip WT peptide], inhibition was half-maximal at 0.0032 µM (IC50).

For CYAKVKEQL (Mut of CYAK(v/L)KEQL; CMS5) [Ssx2ip Mut peptide], half-maximal inhibition (IC50) was put at 0.026 µM.

YYVPLLKRVPS [Alms1.2 WT peptide] showed an IC50 of 1.49 µM.

For YYVPLLKRVPL (Meth A) [Alms1.2 Mut peptide], the IC50 stood at 0.421 µM.

In the case of TYIRPFETKV (Mut of TYIRP(f/L)ETKV; Meth A) [Ccdc85c Mut peptide], the 50% inhibitory concentration (IC50) was 6.16 µM.

Molecule HYINMSLPI (WT of HYINM(i/S)LPI) [Ufsp2 WT peptide] displayed an IC50 below 0.0001 µM.

In turn, HYINMILPI (Mut of HYINM(i/S)LPI; Meth A) [Ufsp2 Mut peptide] showed an IC50 of 0.00023 µM.

The molecule HYLSAILRL (WT of HYLS(s/A)ILRL) [Pacs2 WT peptide] yielded an IC50 of 1.27 µM.

In the case of HYLSSILRL (Mut of HYLS(s/A)ILRL; Meth A) [Pacs2 Mut peptide], the IC50 amounted to 0.041 µM.

A further assay deals with T1, H-2 K^d molecules purified by affinity …. The description is as above. The source holds these as a separate data set.
Source text: as §1
Turning to PDKRLKAEPA [Prrc2a WT peptide], the IC50 was found to be 0.261 µM.

PYKRLKAEPA (Meth A) [Prrc2a Mut peptide] showed a concentration for half-maximal inhibition (IC50) of 1.45 µM.

Turning to EYLDLQTQ (Mut of E(y/D)LDLQTQ; Meth A) [Zfp236.1 Mut peptide], the IC50 stood at 1.64 µM.

Consider SDRLPSSRKK [M112 WT peptide], for which 0.017 µM corresponded to half-maximal inhibition (IC50).

Molecule DYVPMEQPRPP (CMS5) [Alkbh6.4 Mut peptide] gave an IC50 of 47.1 µM.

In turn, GDSVLHLAI (WT of G(y/D)SVLHLAI) [Nfkb1 WT peptide] had an IC50 of 1.61 µM.

As to GYSVLHLAI (Mut of G(y/D)SVLHLAI; Meth A) [Nfkb1 Mut peptide], inhibition was half-maximal at 0.00026 µM (IC50).

With LDYERIHKKML [Ugdh WT peptide], the midpoint of inhibition, the IC50, lay at 0.012 µM.

For the molecule LYYERIHKKML (Meth A) [Ugdh Mut peptide], 0.6 µM corresponded to half-maximal inhibition (IC50).

The molecule LYDVDAAF (Mut of L(y/D)DVDAAF; Meth A) [Cpsf2 Mut peptide] registered an IC50 of 1.41 µM.

In turn, ELQGLLEDER [Ccdc136 WT peptide] gave a half-inhibitory concentration (IC50) of 4.54 µM.

Molecule SEDKIKAIP [Rangap1 WT peptide] yielded a concentration for half-maximal inhibition (IC50) of 5.11 µM.

Molecule AYAKQFAAI (Mut of A(y/D)AKQFAAI; Meth A) [Ube4a.1 Mut peptide] had an IC50 of 0.012 µM.

Turning to PDLTQYAIIM [Dhx8.4 WT peptide], the IC50 is 6.26 µM.

PYLTQYAIIM (CMS5) [Dhx8.4 Mut peptide]: the IC50 amounted to 6.57 µM.

For QVFPGLMER [Atxn10.1 WT peptide], inhibition was half-maximal at 7.05 µM (IC50).

Molecule KLQRQYRSPRR [Mast2 WT peptide] returned a half-maximal inhibitory concentration (IC50) of 8.51 µM.

Turning to KLQRQYRSPRL (CMS5) [Mast2 Mut peptide], the IC50 is 10.1 µM.

AYAKQFAA (Mut of A(y/D)AKQFAA; Meth A) [Ube4a.2 Mut peptide]: the IC50 worked out at 28.6 µM.

ADILAALTKL [Trim26.1 WT peptide] had a concentration for half-maximal inhibition (IC50) of 0.0011 µM.

For the molecule AYILAALTKL (Meth A) [Trim26.1 Mut peptide], the IC50 was 0.622 µM.

Take DYVPMEQP (Mut of D(y/D)VPMEQP; CMS5) [Alkbh6.1 Mut peptide]: the IC50 was found to be 60.9 µM.

Consider PALKSEEKTL (CMS5) [Stau1.3 Mut peptide], for which inhibition was half-maximal at 69.5 µM (IC50).

In turn, KYMSMLEER (Mut of K(y/D)MSMLEER; Meth A) [Ckap5 Mut peptide (Table 5, 9-mer)] returned an IC50 of 0.058 µM.

The molecule LYHTRPTAL (Mut of L(y/D)HTRPTAL; Meth A) [Kdm4b Mut peptide] had an IC50 of 0.264 µM.

B1 had an IC50 of 0.082 µM.

IYGVVARNRAL (Mut of I(y/D)GVVARNRAL; Meth A) [Dis312.1 Mut peptide] came in with an IC50 of 0.143 µM.

In turn, PDLTQYAIIML [Dhx8.1 WT peptide] yielded an IC50 of 1.65 µM.

Regarding PYLTQYAIIML (CMS5) [Dhx8.1 Mut peptide], the IC50 turned out to be 2.19 µM.

LDMLQALCI (WT of (sy/LD)MLQALCI) [Tnpo3 WT peptide] registered a concentration for half-maximal inhibition (IC50) of 0.146 µM.

With GFHGCIHEVL (CMS5) [Slit3 Mut peptide], the IC50 worked out at 51.6 µM.

With LYVSKLNGP (Mut of L(y/D)VSKLNGP; Meth A) [Galnt1 Mut peptide], the IC50 is 27.1 µM.

Regarding PDLTQYAII (WT of P(y/D)LTQYAII) [Dhx8.3 WT peptide], inhibition was half-maximal at 1.42 µM (IC50).

For PYLTQYAII (Mut of P(y/D)LTQYAII; CMS5) [Dhx8.3 Mut peptide], half-maximal inhibition (IC50) was put at 0.244 µM.

On to VYLTCRLEKPA (Meth A) [Gapdh Mut peptide], for which inhibition was half-maximal at 1.15 µM (IC50).

Molecule AYILAALTKLQ (Meth A) [Trim26.2 Mut peptide] gave an IC50 of 17.6 µM.

The molecule HYLQGSNA (Mut of H(y/D)LQGSNA; Meth A) [Fiz1 Mut peptide] came in with an IC50 of 2.47 µM.
